Drawing on US20250179161A1, this text covers Avg. pg/mL Aβ1-42 left after ex vivo phagocytosis, APP/PS1 mouse brain sections with primary murine microglia, mean, Aβ1-42 (pg/ml) left after ex vivo phagocytosis, human AD brain sections with primary murine microglia and Mean (Aβ spots per neuron), isotype control for one substance.

For the experiment, the target named is Amyloid Beta (Aβ) 1-42 (human). Nature of the experiment: cell-based or functional assay.
Chain of Amyloid Beta (Aβ) 1-42 (human) (peptide, as listed by the source): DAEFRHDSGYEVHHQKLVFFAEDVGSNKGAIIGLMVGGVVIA

human IgG isotype control antibody registered an Avg. pg/mL Aβ1-42 left after ex vivo phagocytosis, APP/PS1 mouse brain sections with primary murine microglia, mean of 92600 pg/mL; an Aβ1-42 (pg/ml) left after ex vivo phagocytosis, human AD brain sections with primary murine microglia of 185000 pg/mL; a Mean (Aβ spots per neuron), isotype control at 1:50 mAb:Aβ42, soluble Aβ 1 µM, rat hippocampal neurons (Aβ spots per neuron) of 58.7.
